Assay results reported in patent US20170355757A1 (Regeneron, published 2017).

T1: monkey C5-mmh (monkey, UniProt P01031 19-1676 (human entry), limits assumed)
T1 construct: recombinant, with C-terminal myc-myc-hexahistidine tag
T1 chain: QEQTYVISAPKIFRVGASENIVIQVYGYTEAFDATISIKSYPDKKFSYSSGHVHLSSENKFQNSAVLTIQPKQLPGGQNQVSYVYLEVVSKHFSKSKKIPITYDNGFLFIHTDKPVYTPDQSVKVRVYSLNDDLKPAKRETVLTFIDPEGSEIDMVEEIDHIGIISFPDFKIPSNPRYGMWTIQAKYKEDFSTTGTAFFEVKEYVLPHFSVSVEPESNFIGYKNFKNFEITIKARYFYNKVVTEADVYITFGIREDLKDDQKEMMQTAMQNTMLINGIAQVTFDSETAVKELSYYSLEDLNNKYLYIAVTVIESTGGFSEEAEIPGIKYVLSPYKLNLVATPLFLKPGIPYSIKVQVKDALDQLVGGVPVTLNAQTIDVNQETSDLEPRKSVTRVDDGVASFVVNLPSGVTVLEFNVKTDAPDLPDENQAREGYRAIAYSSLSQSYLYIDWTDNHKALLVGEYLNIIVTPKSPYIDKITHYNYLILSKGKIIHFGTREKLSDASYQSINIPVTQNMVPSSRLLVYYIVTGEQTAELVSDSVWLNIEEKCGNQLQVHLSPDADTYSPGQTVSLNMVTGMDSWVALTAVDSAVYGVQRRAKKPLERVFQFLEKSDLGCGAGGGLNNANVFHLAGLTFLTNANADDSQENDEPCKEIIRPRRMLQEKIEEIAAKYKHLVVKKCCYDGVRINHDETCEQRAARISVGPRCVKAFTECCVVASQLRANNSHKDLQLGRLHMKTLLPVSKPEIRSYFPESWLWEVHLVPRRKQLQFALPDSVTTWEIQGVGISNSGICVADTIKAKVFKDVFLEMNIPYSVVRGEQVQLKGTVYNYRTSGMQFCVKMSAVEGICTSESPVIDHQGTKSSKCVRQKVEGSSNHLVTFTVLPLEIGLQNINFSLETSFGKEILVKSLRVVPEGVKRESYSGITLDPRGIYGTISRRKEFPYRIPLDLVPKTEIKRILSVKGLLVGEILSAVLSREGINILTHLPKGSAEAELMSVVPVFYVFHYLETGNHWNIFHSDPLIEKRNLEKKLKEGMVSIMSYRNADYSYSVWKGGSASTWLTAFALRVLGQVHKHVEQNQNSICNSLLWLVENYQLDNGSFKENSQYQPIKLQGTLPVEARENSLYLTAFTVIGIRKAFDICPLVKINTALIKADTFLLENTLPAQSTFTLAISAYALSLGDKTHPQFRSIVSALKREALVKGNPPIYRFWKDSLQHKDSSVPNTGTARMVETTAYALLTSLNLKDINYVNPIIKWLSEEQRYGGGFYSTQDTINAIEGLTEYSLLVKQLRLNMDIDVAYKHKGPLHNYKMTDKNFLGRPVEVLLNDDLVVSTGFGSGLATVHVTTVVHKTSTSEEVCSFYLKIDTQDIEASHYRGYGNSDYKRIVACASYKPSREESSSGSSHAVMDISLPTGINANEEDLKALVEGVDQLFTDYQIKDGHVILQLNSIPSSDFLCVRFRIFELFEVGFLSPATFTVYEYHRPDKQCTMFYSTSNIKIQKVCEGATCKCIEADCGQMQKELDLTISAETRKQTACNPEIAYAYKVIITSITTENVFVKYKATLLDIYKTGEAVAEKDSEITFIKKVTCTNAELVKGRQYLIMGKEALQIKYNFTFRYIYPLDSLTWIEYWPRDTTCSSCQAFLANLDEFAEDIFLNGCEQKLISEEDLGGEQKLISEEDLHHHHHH

B1: H4H12168P (antibody, human IgG4, V domains shown)
VH: QVQLVESGGGVVQPGGSLRLSCAASGFTFGGHAMHWVRQAPGKGLEWLAVISSDGSNKQYADSVKGRFTISRDNPKNTLYLQMNSLRVGDTAIYYCAKEVAPRYYYYGLDVWGQGTTVTVSS
VL: DIQMTQSPSSLSASVGDRVTITCRASQDISNFLAWYQQKPGKVPKLLIYTASTLQSGVPSRFSGSGSGTDFTLTVSSLQPEDVATYYCQKYAGALTFGPGTKVDIK
notes: H4H: human IgG4 Fc with S108P hinge mutation
B2: H4H12161P (antibody, human IgG4, V domains shown)
VH: EVQLVESGGDLVQPGGSLRLSCAASGFTFSDHYMDWVRQAPGKGLDWIGRIRNKANAYNTEYAASVRGRFTISRDDSQNLLYLQMNSLKTDDTAVYYCVRVWNYAYFAMDVWGQGTTVTVSS
VL: DIQMTQSPSSLSASVGDRVTITCRSSQNIGIFLNWYQQKPGEAPNLLISAASSLHSGVPSRFSGSGSGTDFTLTIGSLQPEDFATYYCQQTYNTIFTFGPGTKVDIK
notes: as for B1
B3: H4H12176P2 (antibody, human IgG4, V domains shown)
VH: EVQLVESGGGLVQPGGSLRLSCAASGFHSNRYWMDWVRQAPGKGLEWVANIKQDGSEENYVDSVKGRFTISRDNAKNSLYLQMNSLRAEDTAVYYCARDRSTSWVPYWFFDLWGRGTLVTVSS
VL: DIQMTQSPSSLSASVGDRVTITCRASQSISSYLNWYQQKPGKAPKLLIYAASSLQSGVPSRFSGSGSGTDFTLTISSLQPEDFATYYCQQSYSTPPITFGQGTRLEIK
notes: as for B1
B4: H4H12183P2 (antibody, human IgG4, V domains shown)
VH: QVQLQESGPALVKPSQTLSLTCTVSGGSIIRGSTYWSWVRQFPGKGLEWIGYSYYSGTAYYNPSLESRATISVDTSKNQFSLNLKSVTAADTAVYYCTREIGVAGLFDIWGQGTLVTVSS
VL: not shown
notes: as for B1
B5: H4H12169P (antibody, human IgG4, V domains shown)
VH: EVQLVESGGGLAQPGGSLRLSCAASGFTFRSYAMSWVRQAPGKGPEWVSGIGGNGVTTYYADSVKGRFTISRDNSKNTLFLQMNSLRAEDTAVYYCVQGGLGGYFTGYWGQGTLVTVSS
VL: DIQMTQSPSSLSASVGDRVTITCRASQSISTYLNWYQQNPGKAPKLLIFDASSLQSGVPSRFSGSGSGTDFTLTIRGLQPEDFATYYCQQSYSAPLTFGGGTKVEIK
notes: as for B1

Target: T2, human C5 (human, UniProt P01031 19-1676)
T2 construct: native C5 purified from plasma (EMD) in the Biacore and Octet assays, C5 of normal human serum in the CDC and hemolysis assays; two chains (alpha and beta); also called hC5; complement factor 5
Assay: SPR (Biacore), mAb captured, dissociation of human C5 at pH7.4 vs pH6.0, 37°C
Description: Effect of pH on the rate of dissociation of recombinant human C5 bound to purified anti-C5 monoclonal antibodies was determined using a real-time surface plasmon resonance biosensor using a Biacore T200 instrument. The Biacore sensor surface was first derivatized by amine coupling with a monoclonal mouse anti-human Fc antibody (GE, # BR-1008-39) to capture anti-C5 monoclonal antibodies expressed with human IgG4 Fc. All Biacore binding studies were performed using two running buffers PBS-T, pH7.4 (0.01M Na₂HPO₄/NaH₂PO₄, 0.15M NaCl, 0.05% v/v Tween-20, adjusted to pH7.4) and PBS-T, pH6.0 (0.01M Na₂HPO₄/NaH₂PO₄, 0.15M NaCl, 0.05% v/v Tween-20, adjusted to pH6.0). […] Binding dissociative half-lives (t %) were calculated from kd as: […]

t½ Ratio pH7.4/pH6.0 | Binder
1 | B1
≤ 0.7 | B2
≤ 0.4 | B3

Target: Cynomolgus monkey C5 (cynomolgus monkey, UniProt A0A2K5U1T1 19-1676)
Assay: cell-based or functional assay

Binder | Cyno AP % Max Inhibition, hemolysis assay, 5% serum [%] | Cyno CP % Max Inhibition, hemolysis assay, 5% serum [%] | Cyno Serum AP IC50, hemolysis assay, 5% serum [nM] | Cyno Serum CP IC50, hemolysis assay, 5% serum [nM]
B4 | 100 | 64.6 | 29.6 | 142
B1 | 99.7 | 99 | 5.45 | 10.3
B2 | 98.4 | 100 | 7.8 | 27.9
B5 | 96.3 | 92.8 | 7.95 | 19.9
B3 | 99.3 | 97.5 | 7.7 | 14.7

Target: T1, monkey C5-mmh
Assay: SPR (Biacore), mAb captured, dissociation of monkey C5 at pH7.4 vs pH6.0, 37°C

t½ Ratio pH7.4/pH6.0 | Binder
2.4 | B4
4 | B1
10.7 | B2
2 | B5
2.8 | B3

Target: T3, African green monkey C5 (African green monkey)
Assay: cell-based or functional assay

Binder | AGM AP % Max Inhibition, hemolysis assay, 5% serum [%] | AGM CP % Max Inhibition, hemolysis assay, 5% serum [%] | AGM Serum AP IC50, hemolysis assay, 5% serum [nM] | AGM Serum CP IC50, hemolysis assay, 5% serum [nM]
B1 | 88.2 | 90.8 | 22.5 | 28
B2 | 35.7 | 78.9 | 47.5 | 31.9
B5 | 45.7 | 43.3 | 91.5 | 34.4
B3 | 83.2 | 91 | 47.7 | 30.4

Target: human C5 R885H-mmh (human, UniProt P01031 19-1676)
Assay: cell-based or functional assay

IC50, inhibition of CDC of Daudi cells, C5 depleted human serum and 6.6 nM C5 Variant R885H [nM] | Binder
1.2 | B4
2.3 | B1
1.8 | B2
1.3 | B5
2.1 | B3

Target: human C5 R885C-mmh (human, UniProt P01031 19-1676)
Assay: cell-based or functional assay

IC50, inhibition of CDC of Daudi cells, C5 depleted human serum and 6.6 nM C5 Variant R885C [nM] | Binder
0.45 | B4
0.86 | B1
1 | B2
0.67 | B5
1.3 | B3

Target: T2, human C5
Assay: cell-based or functional assay

IC50, inhibition of CDC of Daudi cells, 1.66% human serum [nM] | Binder
1.7 | B4
1.5 | B1
2.4 | B2
1.7 | B5
2.7 | B3

Target: T3, African green monkey C5
Assay: cell-based or functional assay
Remark: another data set of the same source

IC50, inhibition of CDC of Daudi cells, 1.66% African Green monkey serum [nM] | Binder
14 | B4
2 | B1
2.6 | B2
2.9 | B5
3.5 | B3

Target: T2, human C5
Assay: cell-based or functional assay
Remark: another data set of the same source

Binder | Human AP % Max Inhibition, hemolysis assay, NHS [%] | Human AP IC50, hemolysis assay, NHS [nM] | Human CP % Max Inhibition, hemolysis assay, NHS [%] | Human CP IC50, hemolysis assay, NHS [nM]
B4 | 78.9 | 160 | 99.9 | 5.88
B1 | 66.2 | 28.5 | 97.5 | 3.33
B2 | 56.1 | 25.5 | 93.7 | 2.56
B5 | 44.5 | 20 | 98.3 | 2.36
B3 | 69.9 | 16.5 | 94.1 | 4.58

Target: T1, monkey C5-mmh
Assay: SPR (Biacore), mAb captured, dissociation of monkey C5 at pH7.4 vs pH6.0, 25°C

t½ Ratio pH7.4/pH6.0 | Binder
5.8 | B4
3.8 | B1
3.4 | B5
≤ 9.1 | B3
